# Assay results taken from patent US7605127.
# Columns and labels:
# [1] = target: c-met protooncogene product (HGF receptor) on B5/589 human mammary epithelial cells (human) (UniProt P08581); test: competition of 125I-HGF/NK1 cross-linking to B5/589 cells by excess unlabeled HGF/NK1 or HGF/SF
# [2] = target: c-met protooncogene product (HGF receptor) on B5/589 human mammary epithelial cells (human) (UniProt P08581); test: cell-based or functional assay
substance,measurement,setting,value
"HGF/NK1 (truncated HGF variant; N-terminal domain and first kringle domain), eukaryotically expressed from the pH46 (2.2 kb) coding region (from UniProt P14210 32-210) (ligand)",affinity for Met relative to full-length HGF/SF (fold of HGF/SF affinity),[1],0.25
same,"[3H]-thymidine incorporation in B5/589 cells, percent of the maximal DNA synthesis elicited by HGF/SF (% of maximal HGF/SF response at 8 nM)",[2],20
same,inhibition of HGF/SF mitogenic activity in the B5/589 bioassay: molar excess for ~50% reduction (fold molar excess over HGF/SF),[2],20
